Columns and labels:
Test in all cases: BLI
[1] = target: C-terminally biotinylated MYC(1–88)
[2] = target: C-terminally biotinylated MYC(1–88)ΔMB0
[3] = target: MYC(1–88 F23A), C-terminally biotinylated
[4] = target: MYC(1–88 P21A), C-terminally biotinylated
[5] = target: MYC(1–88 Y22A), C-terminally biotinylated
[6] = target: MYC(1–88 Y24A), C-terminally biotinylated
[7] = target: biotinyl-MB0 peptide (MYC Box 0, aa 16–33)

- Kd [1]: 3.5 µM
- Kd [2]: > 100 µM
- fold change of KD against wild-type MYC(1–88) [3]: > 5 fold
- fold change of KD against wild-type MYC(1–88) [4]: > 5 fold
- fold change of KD against wild-type MYC(1–88) [5]: > 5 fold
- fold change of KD against wild-type MYC(1–88) [6]: > 5 fold
- Kd [7]: 9.4 µM
B1: PNUTS(1–148), PNUTS amino-terminal domain (PAD) (domain or fragment)
chain: MGSGPIDPKELLKGLDSFLNRDGEVKSVDGISKIFSLMKEARKMVSRCTYLNILLQTRSPEILVKFIDVGGYKLLNNWLTYSKTTNNIPLLQQILLTLQHLPLTVDHLKQNNTAKLVKQLSKSSEDEELRKLASVLVSDWMAVIRSQS

Source: article PMC8989513
